First the molecules themselves.
B1: E3 SUMO-protein ligase PIAS4 (Homo sapiens), Q8N2W9 (parent)
chain: MAAELVEAKNMVMSFRVSDLQMLLGFVGRSKSGLKHELVTRALQLVQFDCSPELFKKIKELYETRYAKKNSEPAPQPHRPLDPLTMHSTYDRAGAVPRTPLAGPNIDYPVLYGKYLNGLGRLPAKTLKPEVRLVKLPFFNMLDELLKPTELVPQNNEKLQESPCIFALTPRQVELIRNSRELQPGVKAVQVVLRICYSDTSCPQEDQYPPNIAVKVNHSYCSVPGYYPSNKPGVEPKRPCRPINLTHLMYLSSATNRITVTWGNYGKSYSVALYLVRQLTSSELLQRLKTIGVKHPELCKALVKEKLRLDPDSEIATTGVRVSLICPLVKMRLSVPCRAETCAHLQCFDAVFYLQMNEKKPTWMCPVCDKPAPYDQLIIDGLLSKILSECEDADEIEYLVDGSWCPIRAEKERSCSPQGAILVLGPSDANGLLPAPSVNGSGALGSTGGGGPVGSMENGKPGADVVDLTLDSSSSSEDEEEEEEEEEDEDEEGPRPKRRCPFQKGLVPAC

Variants of B1 are the subject of this test. Conditions: with parp1_human PARP1, P09874.
Sequence of parp1_human PARP1, P09874 (P09874 whole entry): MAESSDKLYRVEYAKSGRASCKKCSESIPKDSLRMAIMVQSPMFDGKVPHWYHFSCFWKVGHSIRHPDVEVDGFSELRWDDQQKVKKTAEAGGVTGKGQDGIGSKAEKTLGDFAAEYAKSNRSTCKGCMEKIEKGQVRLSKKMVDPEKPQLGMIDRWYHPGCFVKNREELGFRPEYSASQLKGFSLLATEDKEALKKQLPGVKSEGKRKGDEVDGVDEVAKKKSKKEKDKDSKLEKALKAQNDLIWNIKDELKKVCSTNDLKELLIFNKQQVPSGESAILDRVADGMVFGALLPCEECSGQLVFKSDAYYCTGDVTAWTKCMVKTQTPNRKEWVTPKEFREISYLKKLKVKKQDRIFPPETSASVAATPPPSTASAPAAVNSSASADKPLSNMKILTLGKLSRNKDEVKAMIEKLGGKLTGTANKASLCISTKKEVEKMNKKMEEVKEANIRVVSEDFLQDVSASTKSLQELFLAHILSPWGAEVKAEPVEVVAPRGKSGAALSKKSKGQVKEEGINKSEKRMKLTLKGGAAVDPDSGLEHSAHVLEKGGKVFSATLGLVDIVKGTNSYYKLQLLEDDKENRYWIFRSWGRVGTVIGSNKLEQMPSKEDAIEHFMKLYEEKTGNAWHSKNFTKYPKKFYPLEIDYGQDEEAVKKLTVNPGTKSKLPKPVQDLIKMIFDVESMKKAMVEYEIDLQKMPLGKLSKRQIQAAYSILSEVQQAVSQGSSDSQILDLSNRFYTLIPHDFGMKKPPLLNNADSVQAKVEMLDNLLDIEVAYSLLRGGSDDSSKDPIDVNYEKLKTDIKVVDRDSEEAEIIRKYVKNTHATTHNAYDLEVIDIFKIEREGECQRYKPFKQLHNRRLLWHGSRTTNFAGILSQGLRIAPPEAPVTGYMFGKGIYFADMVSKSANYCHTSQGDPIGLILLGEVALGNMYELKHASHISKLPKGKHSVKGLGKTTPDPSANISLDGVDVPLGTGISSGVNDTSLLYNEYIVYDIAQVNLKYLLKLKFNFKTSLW
As to MAAELVEAKNMVMSFRVSDLQMLLGFVGRSKSGLKHELVTRALQLVQFDCSPELFKKIKELYETRYAKKNSEPAPQPHRPLDPLTMHSTYDRAGAVPRTPLAGPNIDYPVLYGKYLNGLGRLPAKTLKPEVRLVKLPFFNMLDELLKPTELVPQNNEKLQESPCIFALTPRQVELIRNSRELQPGVKAVQVVLRICYSDTSCPQEDQYPPNIAVKVNHSYCSVPGYYPSNKPGVEPKRPCRPINLTHLMYLSSATNRITVTWGNYGKSYSVALYLVRQLTSSELLQRLKTIGVKHPELCKALVKEKLRLDPDSEIATTGVRVSLICPLVKMRLSVPCRAETFAHLQCFDAVFYLQMNEKKPTWMCPVCDKPAPYDQLIIDGLLSKILSECEDADEIEYLVDGSWCPIRAEKERSCSPQGAILVLGPSDANGLLPAPSVNGSGALGSTGGGGPVGSMENGKPGADVVDLTLDSSSSSEDEEEEEEEEEDEDEEGPRPKRRCPFQKGLVPAC [C342F], the “effect of a mutation on the interaction” value was “disrupting interaction”.

The values above are taken from IntAct's records for PubMed 19779455.
